# Source: PMC6393309 (Nucleic Acids Research, 2019)
# B1: NTD: N-terminal domain of Redβ, residues 1–177 (protein)
# chain: MSTALATLAGKLAERVGMDSVDPQELITTLRQTAFKGDASDAQFIALLIVANQYGLNPWTKEIYAFPDKQNGIVPVVGVDGWSRIINENQQFDGMDFEQDNESCTCRIYRKDRNHPICVTEWMDECRREPFKTREGREITGPWQSHPKRMLRHKAMIQCARLAFGFAGIYDKDEAER
# B2: F249A Redβ: Redβ variant (protein)
# chain: MSTALATLAGKLAERVGMDSVDPQELITTLRQTAFKGDASDAQFIALLIVANQYGLNPWTKEIYAFPDKQNGIVPVVGVDGWSRIINENQQFDGMDFEQDNESCTCRIYRKDRNHPICVTEWMDECRREPFKTREGREITGPWQSHPKRMLRHKAMIQCARLAFGFAGIYDKDEAERIVENTAYTAERQPERDITPVNDETMQEINTLLIALDKTWDDDLLPLCSQIFRRDIRASSELTQAEAVKALGALKQKAAEQKVAA
# B3: K253A Redβ (protein)
# chain: MSTALATLAGKLAERVGMDSVDPQELITTLRQTAFKGDASDAQFIALLIVANQYGLNPWTKEIYAFPDKQNGIVPVVGVDGWSRIINENQQFDGMDFEQDNESCTCRIYRKDRNHPICVTEWMDECRREPFKTREGREITGPWQSHPKRMLRHKAMIQCARLAFGFAGIYDKDEAERIVENTAYTAERQPERDITPVNDETMQEINTLLIALDKTWDDDLLPLCSQIFRRDIRASSELTQAEAVKALGFLKQAAAEQKVAA
# B4: F249D Redβ (protein)
# chain: MSTALATLAGKLAERVGMDSVDPQELITTLRQTAFKGDASDAQFIALLIVANQYGLNPWTKEIYAFPDKQNGIVPVVGVDGWSRIINENQQFDGMDFEQDNESCTCRIYRKDRNHPICVTEWMDECRREPFKTREGREITGPWQSHPKRMLRHKAMIQCARLAFGFAGIYDKDEAERIVENTAYTAERQPERDITPVNDETMQEINTLLIALDKTWDDDLLPLCSQIFRRDIRASSELTQAEAVKALGDLKQKAAEQKVAA
# B5: L223A Redβ: Redβ variant (protein)
# chain: MSTALATLAGKLAERVGMDSVDPQELITTLRQTAFKGDASDAQFIALLIVANQYGLNPWTKEIYAFPDKQNGIVPVVGVDGWSRIINENQQFDGMDFEQDNESCTCRIYRKDRNHPICVTEWMDECRREPFKTREGREITGPWQSHPKRMLRHKAMIQCARLAFGFAGIYDKDEAERIVENTAYTAERQPERDITPVNDETMQEINTLLIALDKTWDDDLLPACSQIFRRDIRASSELTQAEAVKALGFLKQKAAEQKVAA
# B6: R229A Redβ: Redβ variant (protein)
# chain: MSTALATLAGKLAERVGMDSVDPQELITTLRQTAFKGDASDAQFIALLIVANQYGLNPWTKEIYAFPDKQNGIVPVVGVDGWSRIINENQQFDGMDFEQDNESCTCRIYRKDRNHPICVTEWMDECRREPFKTREGREITGPWQSHPKRMLRHKAMIQCARLAFGFAGIYDKDEAERIVENTAYTAERQPERDITPVNDETMQEINTLLIALDKTWDDDLLPLCSQIFARDIRASSELTQAEAVKALGFLKQKAAEQKVAA
# B7: L223D Redβ: Redβ variant (protein)
# chain: MSTALATLAGKLAERVGMDSVDPQELITTLRQTAFKGDASDAQFIALLIVANQYGLNPWTKEIYAFPDKQNGIVPVVGVDGWSRIINENQQFDGMDFEQDNESCTCRIYRKDRNHPICVTEWMDECRREPFKTREGREITGPWQSHPKRMLRHKAMIQCARLAFGFAGIYDKDEAERIVENTAYTAERQPERDITPVNDETMQEINTLLIALDKTWDDDLLPDCSQIFRRDIRASSELTQAEAVKALGFLKQKAAEQKVAA
# B8: K132A Redβ: Redβ variant, non-interfacial residue Lys-132 of the NTD, control (protein)
# chain: MSTALATLAGKLAERVGMDSVDPQELITTLRQTAFKGDASDAQFIALLIVANQYGLNPWTKEIYAFPDKQNGIVPVVGVDGWSRIINENQQFDGMDFEQDNESCTCRIYRKDRNHPICVTEWMDECRREPFATREGREITGPWQSHPKRMLRHKAMIQCARLAFGFAGIYDKDEAERIVENTAYTAERQPERDITPVNDETMQEINTLLIALDKTWDDDLLPLCSQIFRRDIRASSELTQAEAVKALGFLKQKAAEQKVAA
# B9: Q226A Redβ: Redβ variant (protein)
# chain: MSTALATLAGKLAERVGMDSVDPQELITTLRQTAFKGDASDAQFIALLIVANQYGLNPWTKEIYAFPDKQNGIVPVVGVDGWSRIINENQQFDGMDFEQDNESCTCRIYRKDRNHPICVTEWMDECRREPFKTREGREITGPWQSHPKRMLRHKAMIQCARLAFGFAGIYDKDEAERIVENTAYTAERQPERDITPVNDETMQEINTLLIALDKTWDDDLLPLCSAIFRRDIRASSELTQAEAVKALGFLKQKAAEQKVAA
# B10: F94E λexo: λ Exo variant (protein)
# chain: MTPDIILQRTGIDVRAVEQGDDAWHKLRLGVITASEVHNVIAKPRSGKKWPDMKMSYFHTLLAEVCTGVAPEVNAKALAWGKQYENDARTLFEETSGVNVTESPIIYRDESMRTACSPDGLCSDGNGLELKCPFTSRDFMKFRLGGFEAIKSAYMAQVQYSMWVTRKNAWYFANYDPRMKREGLHYVVIERDEKYMASFDEIVPEFIEKMDEALAEIGFVFGEQWR
# modifications: left off: His6, N-terminal, kept
# B11: F94A λexo (protein)
# chain: MTPDIILQRTGIDVRAVEQGDDAWHKLRLGVITASEVHNVIAKPRSGKKWPDMKMSYFHTLLAEVCTGVAPEVNAKALAWGKQYENDARTLFEATSGVNVTESPIIYRDESMRTACSPDGLCSDGNGLELKCPFTSRDFMKFRLGGFEAIKSAYMAQVQYSMWVTRKNAWYFANYDPRMKREGLHYVVIERDEKYMASFDEIVPEFIEKMDEALAEIGFVFGEQWR
# modifications: left off: His6, N-terminal, kept
# B12: D87A λexo (protein)
# chain: MTPDIILQRTGIDVRAVEQGDDAWHKLRLGVITASEVHNVIAKPRSGKKWPDMKMSYFHTLLAEVCTGVAPEVNAKALAWGKQYENAARTLFEFTSGVNVTESPIIYRDESMRTACSPDGLCSDGNGLELKCPFTSRDFMKFRLGGFEAIKSAYMAQVQYSMWVTRKNAWYFANYDPRMKREGLHYVVIERDEKYMASFDEIVPEFIEKMDEALAEIGFVFGEQWR
# modifications: left off: His6, N-terminal, kept
# B13: L91A λexo (protein)
# chain: MTPDIILQRTGIDVRAVEQGDDAWHKLRLGVITASEVHNVIAKPRSGKKWPDMKMSYFHTLLAEVCTGVAPEVNAKALAWGKQYENDARTAFEFTSGVNVTESPIIYRDESMRTACSPDGLCSDGNGLELKCPFTSRDFMKFRLGGFEAIKSAYMAQVQYSMWVTRKNAWYFANYDPRMKREGLHYVVIERDEKYMASFDEIVPEFIEKMDEALAEIGFVFGEQWR
# modifications: left off: His6, N-terminal, kept
# B14: L91D λexo (protein)
# chain: MTPDIILQRTGIDVRAVEQGDDAWHKLRLGVITASEVHNVIAKPRSGKKWPDMKMSYFHTLLAEVCTGVAPEVNAKALAWGKQYENDARTDFEFTSGVNVTESPIIYRDESMRTACSPDGLCSDGNGLELKCPFTSRDFMKFRLGGFEAIKSAYMAQVQYSMWVTRKNAWYFANYDPRMKREGLHYVVIERDEKYMASFDEIVPEFIEKMDEALAEIGFVFGEQWR
# modifications: left off: His6, N-terminal, kept
# What was measured:
# λ Exo = details: Ni-spin pull down; cited from earlier work
# GB2005 E. coli cells [1] = assay: dsDNA recombination assay; format: cell-based; details: % of WT colonies per 10^8 viable cells
# GB2005 E. coli cells [2] = assay: ssDNA recombination assay; format: cell-based; details: % of WT colonies per 10^8 viable cells
Molecule,DS (%): dsDNA recombination compared to WT (GB2005 E. coli cells [1]),SS (%): ssDNA recombination compared to WT (GB2005 E. coli cells [2]),further results
B1,,,interaction with λ Exo (λ Exo): no interaction
B2,0.21%,0.73%,DS (%): dsDNA recombination compared to WT (GB2005 E. coli cells [1]; listed as F249A): 0–0.7%
B3,0.20%,2.5%,
B4,0%,0.41%,
B5,0.72%,3.5%,DS (%): dsDNA recombination compared to WT (GB2005 E. coli cells [1]; listed as L223A): 0–0.7%
B6,71%,58%,DS (%): dsDNA recombination compared to WT (GB2005 E. coli cells [1]; listed as R229A): 55–106%; SS (%): ssDNA recombination compared to WT (GB2005 E. coli cells [2]; listed as R229A): 13 to 101%
B7,0.11%,0.68%,DS (%): dsDNA recombination compared to WT (GB2005 E. coli cells [1]; listed as L223D): 0–0.7%
B8,19%,20%,
B9,106%,,DS (%): dsDNA recombination compared to WT (GB2005 E. coli cells [1]; listed as Q226A): 55–106%; SS (%): ssDNA recombination compared to WT (GB2005 E. coli cells [2]; listed as Q226A): 13 to 101%
B10,0.68%,177%,DS (%): dsDNA recombination compared to WT (GB2005 E. coli cells [1]; listed as F94E): 0.6–3%
B11,1.6%,183%,
B12,55%,179%,DS (%): dsDNA recombination compared to WT (GB2005 E. coli cells [1]; listed as D87A): 55–106%
B13,0.63%,103%,
B14,3.1%,110%,
